Source: patent US20030224390A1, “Method of identifying conformation-sensitive binding peptides and uses thereof” (Karo Bio AB, priority 2000, published 2003)
Each block holds one molecule with its values, some of them ahead of it.

What was measured:
estrogen receptor (ER) α = molecular target: T1, estrogen receptor (ER) α (Homo sapiens, UniProt P03372); test: Yeast two-hybrid screening of LXXLL peptide library, ligand induced β-galactosidase activity (FIG. 1, Table 501); format: cell-based; conditions: with and without estradiol
T1 construct: expressed in transfected cells; host or cells: Saccharomyces cerevisiae PJ69-α
T1 sequence (P03372 1-595): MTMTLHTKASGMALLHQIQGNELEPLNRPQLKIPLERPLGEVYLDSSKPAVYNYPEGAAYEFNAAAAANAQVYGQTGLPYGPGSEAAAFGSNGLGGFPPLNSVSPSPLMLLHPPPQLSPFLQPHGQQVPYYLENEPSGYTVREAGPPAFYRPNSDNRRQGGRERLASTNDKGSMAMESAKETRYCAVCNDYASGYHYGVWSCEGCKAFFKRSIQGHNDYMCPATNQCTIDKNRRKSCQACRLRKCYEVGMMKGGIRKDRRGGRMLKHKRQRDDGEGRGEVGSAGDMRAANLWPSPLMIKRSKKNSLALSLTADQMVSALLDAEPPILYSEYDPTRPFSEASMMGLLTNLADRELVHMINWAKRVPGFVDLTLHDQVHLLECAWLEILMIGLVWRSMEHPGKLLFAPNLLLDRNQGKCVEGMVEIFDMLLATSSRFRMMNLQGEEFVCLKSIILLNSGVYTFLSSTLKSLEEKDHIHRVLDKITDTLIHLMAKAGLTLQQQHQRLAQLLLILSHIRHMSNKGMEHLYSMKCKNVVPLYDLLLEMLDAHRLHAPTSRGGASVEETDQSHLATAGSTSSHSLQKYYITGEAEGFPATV
Excerpt: A directed peptide library (X5LXXLLX5, SEQ ID NO:264) containing the LXXLL motif (previously identified as common in peptides binding estrogen receptor) as a carboxy-terminal fusion to the Gal4 DNA binding domain was constructed with an overall complexity of […] independent peptides. The LXXLL motif library peptides were encoded by the degenerate DNA sequence (NNK)5TTA(NNK)2(TTA)2(NNK)5 (SEQ ID NO:265); TTA is the preferred Leu codon in yeast. NNK encodes a stop codon so a few of the peptides generated will be shorter than 15 a.a. The shortest interacting peptides will likely be 10-mers. This library was transformed into the Saccharomyces cerevisiae PJ69-α yeast strain expressing estrogen receptor (ER) α as a carboxy-terminal fusion to the Gal4 activation domain. […] Those colonies able to grow by inducing the integrated GAL4 driven HIS3 reporter were transferred into 0.25 ml of rich media in a 0.5 ml block.
Cells were pelleted by centrifugation, the media removed and the cells lysed with buffer containing 2.5% CHAPS (3-(3-Cholamidopropyl) dimethyl ammonio-1-propanesulfonate) detergent. A preliminary OD600 was determined to normalize β-galactosidase activity of each well with cell density. […] Yeast clones that generated a value equal to or greater than 0.5 were verified using the same method. Verified clones were then subjected to a final test of ligand induced β-galactosidase activity. […] Ten clones displaying the greatest ligand induced β-galactosidase activity were studied further.
Plasmids containing the peptides were isolated from the yeast cells and the amino acid sequences (Table 501) deduced by DNA sequencing of the library inserts. In Table 501, the underlined sequence is encoded by vector DNA, and the “*” represents the endogenous stop codon of the vector, and is downstream of the cloning site. Several peptides contain the vector-encoded LDLQPS (SEQ ID NO:266) sequence. B5H10 is believed to be the result of a double insert, with the second part being encoded by the complementary sequence. Peptides B1A1 and B1G8 were shorter than the other isolates because the clones encoding them carry a premature stop codon, which is inherent in the NNK library. Because of a frame shift, neither peptide B6A1 nor B3E2 contained the sequence encoded by vector DNA.

ERβ = ERβ (Homo sapiens, UniProt Q92731); test: Phage ELISA fingerprint: peptide binding to immobilized ER β with modulator present (Table 14B)
Sequence of ERβ (Q92731 whole entry, species assumed, the tested form may be a part): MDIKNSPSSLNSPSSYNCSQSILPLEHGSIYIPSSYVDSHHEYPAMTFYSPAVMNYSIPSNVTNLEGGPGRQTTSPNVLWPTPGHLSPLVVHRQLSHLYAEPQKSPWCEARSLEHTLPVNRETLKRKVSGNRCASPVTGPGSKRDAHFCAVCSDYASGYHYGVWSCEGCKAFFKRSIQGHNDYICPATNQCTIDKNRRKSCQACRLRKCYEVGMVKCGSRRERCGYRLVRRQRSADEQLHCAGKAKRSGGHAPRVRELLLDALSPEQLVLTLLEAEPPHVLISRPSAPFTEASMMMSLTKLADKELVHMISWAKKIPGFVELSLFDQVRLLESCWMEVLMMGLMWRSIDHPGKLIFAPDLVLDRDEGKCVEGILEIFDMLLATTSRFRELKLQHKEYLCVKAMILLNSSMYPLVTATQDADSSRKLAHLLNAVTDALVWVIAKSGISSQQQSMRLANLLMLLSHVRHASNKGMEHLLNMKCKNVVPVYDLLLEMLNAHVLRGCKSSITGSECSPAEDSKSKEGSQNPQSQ

[1] = molecular target: T2, Gal4 transcriptional activation domain (AD) fused in frame with AR (pGAD-C2) (yeast, UniProt P10275 1-920, limits assumed); test: cell-based or functional assay
T2 sequence (looked up): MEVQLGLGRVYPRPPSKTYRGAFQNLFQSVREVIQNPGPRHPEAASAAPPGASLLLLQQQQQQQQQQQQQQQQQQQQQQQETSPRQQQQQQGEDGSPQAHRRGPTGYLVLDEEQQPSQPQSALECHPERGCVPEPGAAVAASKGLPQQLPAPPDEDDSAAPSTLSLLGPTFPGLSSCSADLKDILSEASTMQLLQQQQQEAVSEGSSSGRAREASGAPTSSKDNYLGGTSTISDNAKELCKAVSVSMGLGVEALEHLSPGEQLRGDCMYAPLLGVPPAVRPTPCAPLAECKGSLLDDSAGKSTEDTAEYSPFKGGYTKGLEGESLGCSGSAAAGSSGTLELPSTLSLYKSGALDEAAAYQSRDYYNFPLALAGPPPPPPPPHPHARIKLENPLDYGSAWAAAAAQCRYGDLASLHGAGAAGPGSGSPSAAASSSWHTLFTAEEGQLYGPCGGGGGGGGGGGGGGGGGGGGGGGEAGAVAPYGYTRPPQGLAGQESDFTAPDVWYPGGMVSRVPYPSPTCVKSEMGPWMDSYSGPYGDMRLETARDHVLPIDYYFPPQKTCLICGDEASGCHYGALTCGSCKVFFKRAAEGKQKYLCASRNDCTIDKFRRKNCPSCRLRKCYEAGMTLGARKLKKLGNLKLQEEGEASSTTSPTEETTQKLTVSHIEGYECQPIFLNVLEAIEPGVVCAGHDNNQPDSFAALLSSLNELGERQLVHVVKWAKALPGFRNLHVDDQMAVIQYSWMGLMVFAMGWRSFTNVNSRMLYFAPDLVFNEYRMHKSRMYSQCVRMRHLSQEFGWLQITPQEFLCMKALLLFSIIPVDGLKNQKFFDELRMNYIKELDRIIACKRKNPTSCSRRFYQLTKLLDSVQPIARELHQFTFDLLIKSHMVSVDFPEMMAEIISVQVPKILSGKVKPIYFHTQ

[2] = molecular target: T2, Gal4 transcriptional activation domain …; test: cell-based or functional assay; remark: listed apart in the source
[3] = molecular target: ER β (immobilized, in vitro phage assays) (UniProt Q92731 1-530, limits assumed); test: phage ELISA; ICI 182,780 1 µM
Sequence of ER β (immobilized, in vitro phage assays) (Q92731 whole entry): as the sequence (Q92731 whole entry, species assumed, the tested form may be a part) above

Fold Induction (ligand induced β-galactosidase activity) (estrogen receptor (ER) α): 4.5
Molecule: EFSPPSSLLALLLGGKSLEPLPIRYKNVKRQFTSNSRGSVDLQPS [B5H10]

Fold Induction (ligand induced β-galactosidase activity) (estrogen receptor (ER) α): 3.5
Molecule: EFTGSRLLLKLLRFPDSSTCSQA [B6A1]

Fold Induction (ligand induced β-galactosidase activity) (estrogen receptor (ER) α): 6
Molecule: EFTSVSRLVTLLLQ* [B1G8]

Class Specific Fingerprint on ERβ: peptide binding, Nafoxidine present (ERβ; nafoxidine (10 μM)): 5
Molecule: SSEACVGRWMLCEQLGVSR [12Bβ]

Class Specific Fingerprint on ERβ: peptide binding, 4-OH Tamoxifen present (ERβ; 4-OH tamoxifen (1 μM)): 0
Class Specific Fingerprint on ERβ: peptide binding, ICI 182,780 present (ERβ; ICI 182,780 (1 μM)): 0
Class Specific Fingerprint on ERβ: peptide binding, Clomiphene present (ERβ; clomiphene (10 μM)): 0
Class Specific Fingerprint on ERβ: peptide binding, Raloxifene present (ERβ; raloxifene (1 μM)): 0
Molecule: SSNHQSSRLIELLSR [#4 ER./E2]

Fold induction, yeast two-hybrid [1]: 5 fold
β-galactosidase activity, yeast two-hybrid; CPA [2]: 0.292
β-galactosidase activity, yeast two-hybrid; DHT [2]: 1.72
β-galactosidase activity, yeast two-hybrid; No Lig [2]: 0.371
β-galactosidase activity, yeast two-hybrid; RU [2]: 0.5
B1: B2A7 (peptide)
chain: MKLLSSIEQACDICRLKKLKCSKEKPKCAKCLKNNWECRYSPKTKRSPLTRAHLTEVESRLERLEQLFLLIFPREDLDMILKMDSLQDIKALLTGLFVQDNVNKDAVTDRLASVETDMPLTLRQHRISATSSSEESSNKGQRQLTVSEFPELLAMTRWGRHAALLEPQRLPPPRTTTQPQTEFERMFFFTRPMRTTGLLDLQPS

Fold induction, yeast two-hybrid [1]: > 2 fold
β-galactosidase activity, yeast two-hybrid; CPA [2]: -0.0396
β-galactosidase activity, yeast two-hybrid; DHT [2]: 0.395
β-galactosidase activity, yeast two-hybrid; No Lig [2]: 0
β-galactosidase activity, yeast two-hybrid; RU [2]: 0.1
B2: M4D1 (peptide)
chain: MKLLSSIEQACDICRLKKLKCSKEKPKCAKCLKNNWECRYSPKTKRSPLTRAHLTEVESRLERLEQLFLLIFPREDLDMILKMDSLQDIKALLTGLFVQDNVNKDAVTDRLASVETDMPLTLRQHRISATSSSEESSNKGQRQLTVSEFRFPFHEMVREWESMGLERVRYAEP

phage ELISA grade [3]: 0
Molecule: SSLDLSQFPMTASFLRESR (also called 35Eβ) [β II (B2)]

phage ELISA grade [3]: 0
Molecule: SSPGSREWFKDMLSR (also called 14Tβ; 14T-β) [α/β V (AB5)]

Fold induction, yeast two-hybrid [1]: 10 fold
β-galactosidase activity, yeast two-hybrid; CPA [2]: 8.59
β-galactosidase activity, yeast two-hybrid; DHT [2]: 24.1
β-galactosidase activity, yeast two-hybrid; No Lig [2]: 2.53
β-galactosidase activity, yeast two-hybrid; RU [2]: 6.8
B3: M2H3 (peptide)
chain: MKLLSSIEQACDICRLKKLKCSKEKPKCAKCLKNNWECRYSPKTKRSPLTRAHLTEVESRLERLEQLFLLIFPREDLDMILKMDSLQDIKALLTGLFVQDNVNKDAVTDRLASVETDMPLTLRQHRISATSSSEESSNKGQRQLTVSEFRQSFVSEILGGGWLPLDLQPS

Fold induction, yeast two-hybrid [1]: 1 fold
β-galactosidase activity, yeast two-hybrid; CPA [2]: 0.395
β-galactosidase activity, yeast two-hybrid; DHT [2]: 0.616
β-galactosidase activity, yeast two-hybrid; No Lig [2]: 0.875
β-galactosidase activity, yeast two-hybrid; RU [2]: 0.4
B4: B8A10 (peptide)
chain: MKLLSSIEQACDICRLKKLKCSKEKPKCAKCLKNNWECRYSPKTKRSPLTRAHLTEVESRLERLEQLFLLIFPREDLDMILKMDSLQDIKALLTGLFVQDNVNKDAVTDRLASVETDMPLTLRQHRISATSSSEESSNKGQRQLTVSEFVNWDAVVPWSELVALLDLQPS
